Data published in patent US20140134690A1, “MICROBES AND METHODS FOR PRODUCING 1-PROPANOL” (University of Georgia Research Foundation, Inc., priority 2012, published 2014).

Key:
Experiment in all cases: cells, lysate or membranes named
O=C(CO)COP(=O)(O)O [1] = assay type: biochemical, C. difficile; details: other: substrate dihydroxyacetone phosphate 0.15-1.5 mM, crude extract, imidazole-HCl pH 7.0, 30° C.
From the text: (§1) 1,2-Propanediol pathway branches from glycolysis and competes for the intermediate dihydroxyacetone phosphate, with the glycolytic pathway. […] We amplified the mgsA genes from the microorganisms: C. acetobutylicum (ATCC#824), B. subtilis 168, C. difficile R20291, E. coli MG1655, T. thermophilus HB27, K. pneumoniae MGH78578, P. fluorescens Pf-5, and R. eutropha H16 respectively. These genes were cloned and expressed in wild type E. coli BW25113 using eight plasmids pRJ1-pRJ8. Each gene was under the control of the IPTG-inducible pLlacO1 promoter. Using dihydroxyacetone-phosphate as the substrate, we successfully detected the functional expression of all mgsA genes in vitro, where the specific activities varied from 0.0052 U/mg to 0.1242 U/mg (Table 1). […] Without the over-expression of mgsA gene, we also detected the native expression of E. coli mgsA, which gave a specific activity of only 0.0008 U/mg, much lower than that of any over-expression.
(§2) Using the primers listed in Table 5, the mgsA genes were PCR amplified from the genomic DNA of C. acetobutylicum (ATCC824), B. subtilis 168, Clostridium difficile R20291, E. coli MG1655, Thermus thermophilus HB27, K. pneumoniae MGH78578, Pseudomonas fluorescens Pf-5, and Ralstonia eutropha H16 respectively. […]
(§3) The assay was carried out using a two-step procedure. […] The samples were diluted 10 times before measuring the absorbance at 550 nm.

O=C(CO)COP(=O)(O)O [2] = assay type: biochemical, K. pneumoniae; details: other: substrate dihydroxyacetone phosphate 0.15-1.5 mM, crude extract, imidazole-HCl pH 7.0, 30° C.
From the text: as §1, §2, §3

CC(=O)C=O = details: other: methylglyoxal 20-120 mM, 0.25 mM NADH, crude extract, imidazole-HCl pH 7.0, 37° C.
CC(=O)CO = details: other: hydroxyacetone 20-120 mM, 0.25 mM NADH, crude extract, imidazole-HCl pH 7.0, 37° C.
O=C(CO)COP(=O)(O)O [3] = assay type: biochemical, E. coli; details: other: substrate dihydroxyacetone phosphate 0.15-1.5 mM, crude extract, imidazole-HCl pH 7.0, 30° C.
From the text: as §1, §2, §3

## Clostridium difficile R20291 methylglyoxal synthase (mgsA), wild type (Clostridioides difficile R20291)
O=C(CO)COP(=O)(O)O [1]
  Km: 1439 ± 60 µM

## Klebsiella pneumoniae MGH78578 methylglyoxal synthase (mgsA), wild type (Klebsiella pneumoniae subsp. pneumoniae MGH 78578)
O=C(CO)COP(=O)(O)O [2]
  Km: 2820 ± 300 µM

## K. pneumoniae MGH78578 diol dehydrogenase (budC), wild type (Klebsiella pneumoniae subsp. pneumoniae MGH 78578)
CC(=O)C=O
  Km: 780 ± 30 µM
CC(=O)CO
  Km: 1830 ± 630 µM

## E. coli MG1655 methylglyoxal synthase (mgsA), wild type (Escherichia coli K-12)
O=C(CO)COP(=O)(O)O [3]
  Km: 1418 ± 120 µM
